B1: 40 bp fluorescein dsDNA (dsDNA)
DNA 1: TTTTGAAAAGCAAGCATAAAAGATCTAAACATAAAATCTG
DNA 2: CAGATTTTATGTTTAGATCTTTTATGCTTGCTTTTCAAAA

What was measured:
[1] = molecular target: T1, human ORC1-5 (HsORC1-5, with ORC1ΔN) (Homo sapiens, UniProt O43929+Q13415, O43929:N78S/Q13415:R720Q); assay: NADH-coupled steady-state ATPase assay; assay type: biochemical; conditions: ATP 0.13 uM to 0.5 mM, 1 uM ORC, 10 mM Mg acetate, 300 mM K glutamate, pH 7.6, 37 C; ORC1-ORC4 ATPase site
T1 construct: ORC1 N-terminally truncated (ORC1ΔN399, probably starts at residue 400), ORC4 with natural variant N78S; 6xHis-TEV (ORC1) and MBP-TEV (ORC4) tags cleaved; baculovirus/High Five cells; ORC6 not included; with Origin recognition complex subunit 2; Origin recognition complex subunit 3; Origin recognition complex subunit 5

ORC1-5 ORC4 Y174C = ORC1-5 ORC4 Y174C (human, UniProt Q13415;Q13416;Q9UBD5;O43929;O43913 400-861;1-577;1-711;1-436;1-435, Y174C;ORC4:N78S); assay: fluorescence anisotropy; 1 mM ATP, 10 mM Mg acetate; 25 mM HEPES-KOH pH 7.6, 300 mM K glutamate, 10% glycerol, 1 mM DTT, 10 mM Mg acetate, 0.01% NP-40, 0 or 1 mM ATP, 1 nM DNA, 30 min at 22 °C; Hill fit (Kd,app); conditions: protein: recombinant; tags: 6xHis-TEV (ORC1) and MBP-TEV (ORC4), cleaved by TEV; copies: 1;1;1;1;1; label: 5' fluorescein-T on strand 1; blunt (40 bp; possible 1 nt 5' FluorT overhang)
ORC1-5 (WT, ORC1ΔN) = ORC1-5 (WT, ORC1ΔN) (human, UniProt Q13415;Q13416;Q9UBD5;O43929;O43913 400-861;1-577;1-711;1-436;1-435, N78S); assay: as above; conditions: protein: recombinant; tags: 6xHis-TEV (ORC1) and MBP-TEV (ORC4), cleaved by TEV; copies: 1;1;1;1;1; label: 5' fluorescein-T on strand 1; blunt (40 bp; possible 1 nt 5' FluorT overhang)
ORC1-5 ORC1 R720Q = ORC1-5 ORC1 R720Q (human, UniProt Q13415;Q13416;Q9UBD5;O43929;O43913 400-861;1-577;1-711;1-436;1-435, R720Q;N78S); assay: as above; conditions: protein: recombinant; tags: 6xHis-TEV (ORC1) and MBP-TEV (ORC4), cleaved by TEV; copies: 1;1;1;1;1; label: 5' fluorescein-T on strand 1; blunt (40 bp; possible 1 nt 5' FluorT overhang)
ORC1-5 ORC1 R666W = ORC1-5 ORC1 R666W (human, UniProt Q13415;Q13416;Q9UBD5;O43929;O43913 400-861;1-577;1-711;1-436;1-435, R666W;N78S); assay: as above; conditions: protein: recombinant; tags: 6xHis-TEV (ORC1) and MBP-TEV (ORC4), cleaved by TEV; copies: 1;1;1;1;1; label: 5' fluorescein-T on strand 1; blunt (40 bp; possible 1 nt 5' FluorT overhang)

T1 sequence (Q13415 400-861 R720Q): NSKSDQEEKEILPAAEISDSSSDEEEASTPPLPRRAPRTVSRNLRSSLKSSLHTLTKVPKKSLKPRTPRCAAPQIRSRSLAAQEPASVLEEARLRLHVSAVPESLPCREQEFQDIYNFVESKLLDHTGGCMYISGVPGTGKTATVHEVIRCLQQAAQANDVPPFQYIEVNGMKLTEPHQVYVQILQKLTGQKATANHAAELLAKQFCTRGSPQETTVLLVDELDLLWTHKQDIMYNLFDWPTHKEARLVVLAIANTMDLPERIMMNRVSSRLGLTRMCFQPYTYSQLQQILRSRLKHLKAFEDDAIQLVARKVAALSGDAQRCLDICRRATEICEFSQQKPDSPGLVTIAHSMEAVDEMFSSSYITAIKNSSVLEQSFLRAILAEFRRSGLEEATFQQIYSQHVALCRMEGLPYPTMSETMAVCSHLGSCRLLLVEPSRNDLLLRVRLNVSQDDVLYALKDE
T1 sequence (O43929 whole entry N78S, the tested form may be a part): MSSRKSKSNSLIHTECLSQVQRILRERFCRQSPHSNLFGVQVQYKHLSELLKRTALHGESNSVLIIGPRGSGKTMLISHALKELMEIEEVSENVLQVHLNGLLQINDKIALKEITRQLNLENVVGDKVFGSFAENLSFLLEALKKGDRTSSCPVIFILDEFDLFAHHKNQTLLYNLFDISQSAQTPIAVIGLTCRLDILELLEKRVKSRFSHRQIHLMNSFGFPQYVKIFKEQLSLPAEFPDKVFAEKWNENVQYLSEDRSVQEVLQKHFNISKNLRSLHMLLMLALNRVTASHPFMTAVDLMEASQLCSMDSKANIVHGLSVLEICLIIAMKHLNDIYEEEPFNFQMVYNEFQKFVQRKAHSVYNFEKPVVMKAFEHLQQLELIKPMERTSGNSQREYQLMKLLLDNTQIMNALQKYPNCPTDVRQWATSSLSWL
T1 sequence (Q13416 whole entry partner, the tested form may be a part): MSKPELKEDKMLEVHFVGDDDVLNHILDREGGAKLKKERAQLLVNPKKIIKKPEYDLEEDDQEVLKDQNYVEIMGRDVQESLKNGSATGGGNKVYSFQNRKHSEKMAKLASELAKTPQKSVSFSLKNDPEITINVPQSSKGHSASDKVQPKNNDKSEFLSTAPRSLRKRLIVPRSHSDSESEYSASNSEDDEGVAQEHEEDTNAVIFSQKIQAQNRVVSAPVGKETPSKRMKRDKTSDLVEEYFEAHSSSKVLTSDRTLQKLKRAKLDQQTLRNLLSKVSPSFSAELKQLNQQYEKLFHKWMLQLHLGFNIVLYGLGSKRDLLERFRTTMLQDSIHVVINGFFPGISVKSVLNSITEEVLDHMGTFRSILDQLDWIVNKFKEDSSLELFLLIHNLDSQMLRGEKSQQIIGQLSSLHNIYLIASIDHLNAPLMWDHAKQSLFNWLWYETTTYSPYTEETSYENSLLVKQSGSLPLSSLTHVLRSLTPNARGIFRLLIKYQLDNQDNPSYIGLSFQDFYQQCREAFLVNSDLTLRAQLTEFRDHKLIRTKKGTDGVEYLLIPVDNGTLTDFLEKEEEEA
T1 sequence (Q9UBD5 whole entry partner, the tested form may be a part): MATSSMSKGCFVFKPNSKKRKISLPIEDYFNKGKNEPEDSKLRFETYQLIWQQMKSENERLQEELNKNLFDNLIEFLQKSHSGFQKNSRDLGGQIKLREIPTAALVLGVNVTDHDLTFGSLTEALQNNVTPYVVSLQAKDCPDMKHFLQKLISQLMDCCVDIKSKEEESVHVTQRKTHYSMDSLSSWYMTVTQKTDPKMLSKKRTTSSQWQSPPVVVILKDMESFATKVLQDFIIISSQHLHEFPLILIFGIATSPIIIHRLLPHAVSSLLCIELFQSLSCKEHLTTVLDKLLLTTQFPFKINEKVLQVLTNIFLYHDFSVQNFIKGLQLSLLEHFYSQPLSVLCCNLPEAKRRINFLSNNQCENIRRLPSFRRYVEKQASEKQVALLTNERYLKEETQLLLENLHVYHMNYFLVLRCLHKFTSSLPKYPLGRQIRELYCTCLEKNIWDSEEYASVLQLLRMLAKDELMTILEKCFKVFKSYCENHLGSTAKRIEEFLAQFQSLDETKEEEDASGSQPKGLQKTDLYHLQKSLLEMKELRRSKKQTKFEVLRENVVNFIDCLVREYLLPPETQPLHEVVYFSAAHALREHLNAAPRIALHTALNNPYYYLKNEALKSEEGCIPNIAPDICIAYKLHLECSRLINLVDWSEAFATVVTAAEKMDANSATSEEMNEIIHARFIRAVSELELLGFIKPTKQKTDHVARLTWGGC
T1 sequence (O43913 whole entry partner, the tested form may be a part): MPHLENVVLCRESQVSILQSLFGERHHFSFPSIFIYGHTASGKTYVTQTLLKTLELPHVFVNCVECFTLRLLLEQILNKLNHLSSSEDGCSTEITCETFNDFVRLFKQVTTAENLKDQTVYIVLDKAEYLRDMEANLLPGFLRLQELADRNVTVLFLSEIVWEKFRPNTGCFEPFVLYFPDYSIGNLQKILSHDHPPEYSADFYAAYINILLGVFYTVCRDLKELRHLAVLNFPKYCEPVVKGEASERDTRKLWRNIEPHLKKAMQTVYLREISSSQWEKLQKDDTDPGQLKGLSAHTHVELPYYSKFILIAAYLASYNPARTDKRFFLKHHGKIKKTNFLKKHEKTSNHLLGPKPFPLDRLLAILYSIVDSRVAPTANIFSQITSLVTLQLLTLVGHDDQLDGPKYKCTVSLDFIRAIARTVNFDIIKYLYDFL

Molecule	NADH-coupled steady-state ATPase assay [1]	binding result (ORC1-5 ORC4 Y174C)	Kd (ORC1-5 (WT, ORC1ΔN))	binding result (ORC1-5 ORC1 R720Q)	Kd (ORC1-5 ORC1 R666W)
Nc1ncnc2c1ncn2[C@@H]1O[C@H](COP(=O)(O)OP(=O)(O)OP(=O)(O)O)[C@@H](O)[C@H]1O [ATP]	with the largest ATP hydrolysis defect observed with ORC1R720Q	–	–	–	–
B1	–	no binding	37.6 nM	no binding	49.9 nM

Source: article PMC12830165 (The Journal of Biological Chemistry, 2025)
